Test results taken from patent publication US20240368272A1 (UNIVERSITY OF BERN, published 2024).

T1: N-terminally biotinylated KCNQ1 peptide (Nterm-Biotin-(CH2O)4-AEKDAVNESGRVEFGSYADA-Cterm) (human, N-terminal Biotin-(CH2O)4-)
T1 construct: Immobilised on streptavidin biosensor tips for Octet BLI
T1 peptide: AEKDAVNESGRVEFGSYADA

T2: human KCNQ1 (expressed together with KCNE1 as a separate chain; IKs channel) (human, UniProt P51787 1-676)
T2 sequence: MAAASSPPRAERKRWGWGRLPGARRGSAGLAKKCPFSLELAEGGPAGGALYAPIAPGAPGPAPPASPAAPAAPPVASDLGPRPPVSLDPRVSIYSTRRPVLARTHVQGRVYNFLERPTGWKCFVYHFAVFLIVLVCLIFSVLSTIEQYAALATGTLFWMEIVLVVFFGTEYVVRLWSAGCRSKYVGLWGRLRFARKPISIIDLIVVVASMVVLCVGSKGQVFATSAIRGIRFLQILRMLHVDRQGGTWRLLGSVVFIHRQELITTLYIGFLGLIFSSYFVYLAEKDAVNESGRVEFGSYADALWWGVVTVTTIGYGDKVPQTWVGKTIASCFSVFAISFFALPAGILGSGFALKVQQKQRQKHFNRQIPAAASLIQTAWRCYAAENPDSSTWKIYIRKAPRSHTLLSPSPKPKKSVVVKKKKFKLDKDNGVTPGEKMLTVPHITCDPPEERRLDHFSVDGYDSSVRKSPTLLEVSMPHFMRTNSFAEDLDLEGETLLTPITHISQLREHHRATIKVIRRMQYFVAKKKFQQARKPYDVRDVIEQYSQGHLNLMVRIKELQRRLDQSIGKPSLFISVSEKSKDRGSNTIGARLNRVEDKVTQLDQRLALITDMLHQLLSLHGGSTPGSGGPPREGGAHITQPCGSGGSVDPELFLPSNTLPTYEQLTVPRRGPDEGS

T3: KCNQ1 channel peptide (AEKDAVNESGRVEFGSYADA) (human)
T3 construct: Coupled to KLH for immunisation; the free peptide (2.12 kDa) was the analyte in SPR; also called KCNQ1 peptide; antigenic peptide
T3 peptide: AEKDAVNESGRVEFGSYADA

B1: IgG2a 8-F11-D4 monoclonal antibody (antibody, V domains shown)
VH: EVKLVESGGGLVKPGGSLQLSCAASGFTFSNYAMSWVRQTPEKRLEWVASISGGGNTYYPDSVKGRFTISRDNARNILYLQMNSLRSEDTAMYYCVRATRDYFDYWGQGTTLTVSS
VL: DIVMSQSPSSLAVSVGEKVTMSCKSSQSLLNSRTRKSYLAWYQQKPGQSPKLLIYWASTRESGVPDRFTGSGSGTDFTLTISSVQAEDLAVYSCEQSYYLYTFGGGTKLEIK
notes: also called mouse monoclonal IgG2a 8-F11-D4; murine monoclonal anti-KCNQ1 antibody IgG2a 8-F11-D4
B2: recombinant murine IgG2a 8-F11-D4 antibody (antibody, V domains shown)
VH: B1 VH
VL: B1 VL

Tests used:
[1] = target: T1, N-terminally biotinylated KCNQ1 peptide …; test: BLI (Octet RED96), biotinylated peptide on streptavidin tips, antibody in solution, 1:1 model, duplicate
Method: (§1) FIG. 16. Kinetic measurements of mAb binding to 20aa KCNQ1 target sequence.
(§2) Binding kinetics of KCNQ1 peptide interactions with IgG2a 8-F11-D4 was monitored using Octet RED96 Bio-Layer Interferometry (Sartorius). All measurements were performed in duplicate at 25° C. in an assay-specific buffer containing 1× PBS pH 7.4, 1× kinetic buffer and 1% BSA using 96-well plates with orbital shake speed of 1,000 rpm. The binding curves were generated by first immobilizing 1 mM N-terminally biotinylated KCNQ1 peptide on streptavidin-coated biosensor tips for 2.5 min followed by a baseline equilibration step for 5 min. The biosensor tips were then submerged in wells containing […] mAbs for 5 min to monitor formation of the mAb-peptide complex, followed by antibody dissociation in the assay buffer for 5 minutes. A shift in the interference pattern of white light reflected from the surface of a biosensor tip caused by antibody binding/dissociation was monitored in real time. Antibody-peptide interactions were analyzed by a 1:1 binding model and the dissociation constants (KDs) were determined as ratios of dissociation (koff) and association (kon) binding rate constants derived using non-linear fitting model in GraphPad Prism.

[2] = target: T1, N-terminally biotinylated KCNQ1 peptide …; test: bio-layer interferometry (Octet RED96), biotinylated KCNQ1 peptide on streptavidin tips, 1:1 model, mean of duplicate runs
Method: as §1, §2

[3] = target: T2, human KCNQ1 (expressed together with …); test: cell-based or functional assay
[4] = target: T3, KCNQ1 channel peptide …; test: SPR (Biacore 8K), antibody immobilised on CM5 chip, peptide as analyte, mean of triplicate
Method: Antibody kinetics and affinity measurement: A Biacore 8K Surface Plasmon Resonance (SPR) instrument (GE Healthcare Life Sciences, ProteoGenix, France) equipped with a CM5 sensor chip was used to generate binding kinetic rate and affinity constants at room temperature. IgG2a 8-F11-D4 (10 μg/ml) was immobilized onto the CM5 chip by amide coupling, following manufacturer's protocol. The surface chemistry was activated using 1-Ethyl-3-(3-dimethylaminopropyl) carbodiimide hydrochloride (EDC) and sulfo-N-Hydroxysuccinimide (NHS) reagents prior to immobilization, while ethanolamine was used to deactivate remaining active esters. Samples were prepared in HBS-EP⁺ buffer composed of 10 mM HEPES (pH 7.4), 150 mM NaCl, 3 mM EDTA, 0.05% Surfactant P20. The antigenic peptide was suspended in 20 mM sodium acetate (pH 4.5) and glycine-HCl (pH 1.5) was used as regeneration buffer. […] This level was considered optimal based upon the calculation of the maximal response (Rₘₐₓ) of analyte (antigenic peptide) to ligand (IgG2a): Rₘₐₓ=(MWanalyte/MWligand)×RL×Sₘ, where MWanalyte and MWligand are the molecular weights of the peptide (analyte, 2.12 kDa) to the antibody (ligand, 180 kDa as determined by SDS-PAGE), respectively, RL is the target amount of ligand bound in RU, and Sₘ represents the stoichiometric ratio of the analyte/ligand interaction (Sₘ equals 1). A theoretical Rₘₐₓ of […] is achieved at 10′000 RU of ligand. […] Injections were performed in triplicate to assess for the assay's reproducibility. All data were processed and analyzed with Biacore 8K Evaluation Software.

| Binder | Kd [1] [nM] | Kd [2] [nM] | half-maximal effective concentration (EC50) of APD90 reduction in hiPSC-CMCs [3] [µg/mL] | mean IKs step current at +70 mV, whole-cell patch clamp, CHO cells stably expressing human IKs channels, 30 µg/ml IgG [3] [fold] | mean IKs tail current upon repolarization to -40 mV, whole-cell patch clamp, CHO cells stably expressing human IKs channels, 30 µg/ml IgG [3] [fold] | Kd [4] [nM] | koff [4] [s⁻¹] | kon [4] [M⁻¹ s⁻¹] | IKs step current at +70 mV versus control, CHO cells stably expressing human IKs, 30 µg/ml recombinant antibody [3] [fold] | IKs tail current versus control, CHO cells stably expressing human IKs, 30 µg/ml recombinant antibody [3] [fold] |
| --- | --- | --- | --- | --- | --- | --- | --- | --- | --- | --- |
| B1 | ~4 | 3.7 | 5.7 | 1.6 | 1.5 | 9.02 | 0.00082 | 90900 |  |  |
| B2 |  |  |  |  |  |  |  |  | 1.6 | 1.5 |
